Measurements published in article PMC6124691 (Cell, 2018).

Key:
[1] = biological target: T1, Human MTR4 (SKIV2L2, DOB1) (human, UniProt P42285 1-1042); experiment: cryo-EM structure
T1 sequence: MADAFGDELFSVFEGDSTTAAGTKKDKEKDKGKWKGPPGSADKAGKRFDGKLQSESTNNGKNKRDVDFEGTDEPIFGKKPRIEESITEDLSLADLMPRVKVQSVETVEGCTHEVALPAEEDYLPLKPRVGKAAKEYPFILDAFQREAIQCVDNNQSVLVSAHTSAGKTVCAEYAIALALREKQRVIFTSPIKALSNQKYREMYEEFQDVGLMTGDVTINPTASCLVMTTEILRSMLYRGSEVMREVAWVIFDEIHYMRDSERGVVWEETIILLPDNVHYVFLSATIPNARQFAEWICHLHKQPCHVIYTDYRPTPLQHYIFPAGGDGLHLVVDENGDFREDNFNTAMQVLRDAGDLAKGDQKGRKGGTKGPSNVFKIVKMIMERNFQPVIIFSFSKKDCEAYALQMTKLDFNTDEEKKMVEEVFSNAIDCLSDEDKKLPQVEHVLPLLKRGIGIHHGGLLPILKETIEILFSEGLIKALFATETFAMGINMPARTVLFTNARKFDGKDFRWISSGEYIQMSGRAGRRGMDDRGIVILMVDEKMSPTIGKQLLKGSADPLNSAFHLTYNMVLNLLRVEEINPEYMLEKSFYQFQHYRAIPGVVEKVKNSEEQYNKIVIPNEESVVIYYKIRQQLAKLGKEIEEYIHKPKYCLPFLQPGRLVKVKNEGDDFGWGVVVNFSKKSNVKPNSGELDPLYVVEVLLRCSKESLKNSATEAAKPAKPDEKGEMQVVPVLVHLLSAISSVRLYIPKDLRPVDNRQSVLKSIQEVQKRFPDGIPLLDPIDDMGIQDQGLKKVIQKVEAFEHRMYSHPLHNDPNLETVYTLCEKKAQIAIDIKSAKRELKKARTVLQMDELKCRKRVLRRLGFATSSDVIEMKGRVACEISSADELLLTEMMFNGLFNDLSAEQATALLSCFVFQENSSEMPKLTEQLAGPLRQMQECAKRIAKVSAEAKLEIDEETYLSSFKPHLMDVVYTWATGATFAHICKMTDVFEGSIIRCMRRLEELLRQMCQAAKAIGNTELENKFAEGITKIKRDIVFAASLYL

[2] = biological target: EXOSC3 (human, UniProt Q9NQT5 1-275); experiment: cryo-EM structure
EXOSC3, sequence (Q9NQT5 whole entry): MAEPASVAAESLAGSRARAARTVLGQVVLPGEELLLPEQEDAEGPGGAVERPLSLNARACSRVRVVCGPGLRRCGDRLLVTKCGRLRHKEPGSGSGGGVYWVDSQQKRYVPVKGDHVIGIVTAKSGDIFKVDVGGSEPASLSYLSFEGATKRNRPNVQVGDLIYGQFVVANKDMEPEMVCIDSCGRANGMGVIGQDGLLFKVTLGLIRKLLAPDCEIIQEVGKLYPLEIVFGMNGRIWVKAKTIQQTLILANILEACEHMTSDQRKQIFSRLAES

binding result [1]: binds | binding result [2]: binds
B1: Human M-Phase-Phosphoprotein 6 (MPP6) (natural protein)
chain: MAAERKTRLSKNLLRMKFMQRGLDSETKKQLEEEEKKIISEEHWYLDLPELKEKESFIIEEQSFLLCEDLLYGRMSFRGFNPEVEKLMLQMNAKHKAEEVEDETVELDVSDEEMARRYETLVGTIGKKFARKRDHANYEEDENGDITPIKAKKMFLKPQD
